Measured values from US20240392020A1 (JIANGSU HENGRUI PHARMACEUTICALS, published 2024).
Where two headings read alike, the source gives them in different places. Blank lines part the entries; values can stand above or below the binder they belong to.

Experiments:
human PDL1-his [1] = target: T1, human PDL1-his (human, UniProt Q9NZQ7 19-239); assay: SPR Biacore T200, antibody captured on Protein A chip
T1 construct: bought; also called hPDL1

human TIGIT-his [2] = target: T2, human TIGIT-his (human, UniProt Q495A1 22-141, limits assumed); assay: as above
T2 construct: bought; also called hTIGIT
T2 sequence (looked up): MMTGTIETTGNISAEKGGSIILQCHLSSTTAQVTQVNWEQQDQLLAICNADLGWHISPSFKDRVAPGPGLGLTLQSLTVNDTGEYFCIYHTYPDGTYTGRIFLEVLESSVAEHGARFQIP

human TIGIT-his [3] = target: T2, human TIGIT-his; assay: SPR Biacore T200, antibody captured, TIGIT injected after saturation with hPDL1
human PDL1-his [4] = target: T1, human PDL1-his; assay: SPR Biacore T200, antibody captured, hPDL1 injected after saturation with TIGIT
HJ-3-L1 = target: T3, HJ-3-L1; assay: mass spectrometry of the product of four co-transfected chains of HJ-3; mispairing of heavy chain 2 with light chain 3
T3 construct: also called chain 3 of HJ-3

hBAFF [5] = target: T4, hBAFF (human, UniProt Q9Y275 134-285); assay: SPR Biacore T200, antibody captured on Protein A chip
T4 construct: bought

hP40 [6] = target: T5, hP40 (human, UniProt P29460 23-328); assay: as above
T5 construct: bought
T5 sequence (looked up): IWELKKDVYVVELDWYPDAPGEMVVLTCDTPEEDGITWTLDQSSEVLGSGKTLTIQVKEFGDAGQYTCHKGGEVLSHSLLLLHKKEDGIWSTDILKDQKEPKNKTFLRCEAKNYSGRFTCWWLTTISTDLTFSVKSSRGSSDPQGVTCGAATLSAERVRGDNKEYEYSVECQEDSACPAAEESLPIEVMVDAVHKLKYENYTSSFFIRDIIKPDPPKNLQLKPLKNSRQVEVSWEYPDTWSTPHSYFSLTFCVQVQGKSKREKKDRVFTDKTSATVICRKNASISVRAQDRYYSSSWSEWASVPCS

hBAFF [7] = target: T4, hBAFF; assay: SPR Biacore T200, BU5 captured, hBAFF injected after saturation with hP40
hP40 [8] = target: T5, hP40; assay: SPR Biacore T200, BU5 captured, hP40 injected after saturation with hBAFF
[9] = target: T6, hCD3 antigen protein (heterodimer of delta and epsilon subunits) (human); assay: SPR Biacore T200, antibody captured on Protein A chip
T6 construct: prepared in the laboratory
T6 chain 1: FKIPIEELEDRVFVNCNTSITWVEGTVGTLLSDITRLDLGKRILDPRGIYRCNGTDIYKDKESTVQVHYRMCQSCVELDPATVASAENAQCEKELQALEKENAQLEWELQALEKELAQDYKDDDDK
T6 chain 2: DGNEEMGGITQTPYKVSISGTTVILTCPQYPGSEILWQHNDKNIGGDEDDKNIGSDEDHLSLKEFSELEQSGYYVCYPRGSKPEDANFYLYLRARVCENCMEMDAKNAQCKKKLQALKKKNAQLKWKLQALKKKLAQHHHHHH

hB7H3 antigen protein = target: T7, hB7H3 antigen protein (human, UniProt Q5ZPR3 29-461); assay: as above
T7 construct: prepared in the laboratory
T7 sequence: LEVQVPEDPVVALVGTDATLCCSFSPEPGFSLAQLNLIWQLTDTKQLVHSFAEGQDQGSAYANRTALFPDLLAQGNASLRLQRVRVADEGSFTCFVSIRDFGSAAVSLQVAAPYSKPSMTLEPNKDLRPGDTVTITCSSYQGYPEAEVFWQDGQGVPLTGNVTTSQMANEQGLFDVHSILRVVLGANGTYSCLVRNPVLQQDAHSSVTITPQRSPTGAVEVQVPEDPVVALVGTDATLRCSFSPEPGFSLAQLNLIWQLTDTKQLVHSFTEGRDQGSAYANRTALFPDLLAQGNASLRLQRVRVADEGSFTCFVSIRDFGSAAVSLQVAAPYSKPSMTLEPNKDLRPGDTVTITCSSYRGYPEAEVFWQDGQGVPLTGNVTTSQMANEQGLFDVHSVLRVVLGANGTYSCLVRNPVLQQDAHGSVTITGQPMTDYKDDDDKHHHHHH

hBAFF [10] = target: T4, hBAFF; assay: ELISA
hBAFF [11] = target: T4, hBAFF; assay: ELISA; remark: listed apart in the source
hBAFF [12] = target: T4, hBAFF; assay: SPR Biacore T200, antibody captured on Protein A chip; remark: listed apart in the source
HJ-2-L2 = target: T8, HJ-2-L2; assay: mass spectrometry of the product of four co-transfected chains of HJ-2; mispairing of heavy chain 2 with light chain 3
T8 construct: also called chain 3 of HJ-2
T8 sequence (light, as listed by the source limits assumed): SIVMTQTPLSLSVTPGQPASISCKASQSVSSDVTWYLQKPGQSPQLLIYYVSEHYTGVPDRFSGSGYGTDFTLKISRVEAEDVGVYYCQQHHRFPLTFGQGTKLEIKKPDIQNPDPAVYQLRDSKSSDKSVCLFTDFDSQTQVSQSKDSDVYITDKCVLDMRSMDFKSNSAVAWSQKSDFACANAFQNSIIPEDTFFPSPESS

Heavy chain of D0 = target: T9, Heavy chain of D0 (Homo sapiens (Human), UniProt P0DOX5 1-449 = IgG part); assay: co-expression in HEK293E cells, LC-MS for the mispaired molecule
T9 construct: single antibody chain, co-expressed

T1 sequence (Q9NZQ7 19-239 limits assumed): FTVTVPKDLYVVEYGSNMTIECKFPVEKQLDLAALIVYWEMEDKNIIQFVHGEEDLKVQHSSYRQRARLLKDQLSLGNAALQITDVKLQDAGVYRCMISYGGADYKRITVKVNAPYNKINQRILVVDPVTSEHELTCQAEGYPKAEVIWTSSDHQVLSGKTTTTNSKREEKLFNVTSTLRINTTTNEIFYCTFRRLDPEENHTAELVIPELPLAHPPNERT

Kd (hBAFF [5]): 0.393 nM
koff (hBAFF [5]): 7.62e-05 s⁻¹
kon (hBAFF [5]): 194000 M⁻¹ s⁻¹
Kd (hP40 [6]): 0.0664 nM
koff (hP40 [6]): 0.000102 s⁻¹
kon (hP40 [6]): 1.54e+06 M⁻¹ s⁻¹
Kd (hBAFF [7]): 0.537 nM
koff (hBAFF [7]): 8.44e-05 s⁻¹
kon (hBAFF [7]): 157000 M⁻¹ s⁻¹
Kd (hP40 [8]): 0.0661 nM
koff (hP40 [8]): 0.000104 s⁻¹
kon (hP40 [8]): 1.57e+06 M⁻¹ s⁻¹
B3: BU5 (bispecific antibody, human IgG1, kappa, L234A L235A)
heavy 1: QVQLQQSGAEVKKPGSSVRVSCKASGGTFNNNAINWVRQAPGQGLEWMGGIIPMFGTAKYSQNFQGRVAITADESTGTASMELSSLRSEDTAVYYCARSRDLLLFPHHALSPWGRGTMVTVSSGGGGSGIPPKIECLPIDISIDEGKVLTVASAFTGEPTPEVTWSTGGRKIHSQEQGRFHIENTDDLTTLIIKDVQKQDGGLYTLTLRNEFGSDSATVNIHIRSIDKTHTCPPCPAPEAAGGPSVFLFPPKPKDTLMISRTPEVTCVVVDVSHEDPEVKFNWYVDGVEVHNAKTKPREEQYNSTYRVVSVLTVLHQDWLNGKEYKCKVSNKALPAPIEKTISKAKGQPREPQVCTLPPSREEMTKNQVSLSCAVKGFYPSDIAVEWESNGQPENNYKTTPPVLDSDGSFFLVSKLTVDKSRWQQGNVFSCSVMHEALHNHYTQKSLSLSPGK
light 1: SSELTQDPAVSVALGQTVRVTCQGDSLRSYYASWYQQKPGQAPVLVIYGKNNRPSGIPDRFSGSSSGNTASLTITGAQAEDEADYYCSSRDSSGNHWVFGGGTELTVLGGGGSSGAPRFLTRPLAFVVSVGKDATLSSQIVGNPTPQVSWEKDKQPVTAGARFRLAQDGDLYRLKILDLQLSDSGQYVSRARNAIGEAFACLGLQVDAEA
heavy 2: not shown
light 2: not shown

Kd [9]: 60.2 nM
koff [9]: 0.00425 s⁻¹
kon [9]: 70600 M⁻¹ s⁻¹
Kd (hB7H3 antigen protein): 45 nM
koff (hB7H3 antigen protein): 0.00712 s⁻¹
kon (hB7H3 antigen protein): 158000 M⁻¹ s⁻¹
B4: FA-1 (bispecific antibody)
heavy 1: QVQLVQSGGGVVQPGTSLRLSCAASGFIFSSSAMHWVRQAPGKGLEWVAVISYDGSNKYYVDSVKGRFTISRDNSKNTLYLQMNSLRAEDTAVYYCARSARLYASFDYWGQGALVTVSSGGGGSGIPPKIECLPIDISIDEGKVLTVASAFTGEPTPEVTWSTGGRKIHSQEQGRFHIENTDDLTTLIIKDVQKQDGGLYTLTLRNEFGSDSATVNIHIRSIDKTHTCPPCPAPEAAGGPSVFLFPPKPKDTLMISRTPEVTCVVVDVSHEDPEVKFNWYVDGVEVHNAKTKPREEQYNSTYRVVSVLTVLHQDWLNGKEYKCKVSNKALPAPIEKTISKAKGQPREPQVCTLPPSREEMTKNQVSLSCAVKGFYPSDIAVEWESNGQPENNYKTTPPVLDSDGSFFLVSKLTVDKSRWQQGNVFSCSVMHEALHNHYTQKSLSLSPGK
light 1: DTVVTQEPSFSVSPGGTVTLTCGLSSGSVSTSHYPSWYQQTPGQAPRMLIYNTNTRSSGVPDRFSGSILGNKAALTITGAQADDESDYYCAIHVDRDIWVFGGGTKLTVLGGGGSSGAPRFLTRPLAFVVSVGKDATLSSQIVGNPTPQVSWEKDKQPVTAGARFRLAQDGDLYRLKILDLQLSDSGQYVSRARNAIGEAFACLGLQVDAEA
heavy 2: not shown
light 2: not shown
notes: also called FA-1 bispecific antibody

EC50 (hBAFF [10]): 0.2 nM
EC50 (hBAFF [11]): 0.219 nM
Kd (hBAFF [5]): 0.855 nM
koff (hBAFF [5]): 0.000152 s⁻¹
kon (hBAFF [5]): 177000 M⁻¹ s⁻¹
Kd (hBAFF [12]): 0.864 nM
koff (hBAFF [12]): 0.000153 s⁻¹
kon (hBAFF [12]): 177000 M⁻¹ s⁻¹
B5: Bmab (antibody, human IgG1, lambda)
heavy: not shown
light: SSELTQDPAVSVALGQTVRVTCQGDSLRSYYASWYQQKPGQAPVLVIYGKNNRPSGIPDRFSGSSSGNTASLTITGAQAEDEADYYCSSRDSSGNHWVFGGGTELTVLGQPKAAPSVTLFPPSSEELQANKATLVCLISDFYPGAVTVAWKADSSPVKAGVETTTPSKQSNNKYAASSYLSLTPEQWKSHRSYSCQVTHEGSTVEKTVAPTECS
notes: also called B0

Second part, the binder before the results:

B1: P-O-T (bispecific antibody, human IgG1, kappa)
heavy: not shown
light 1: DIVLTQSPASLAVSPGQRATITCRASESVSIHGTHLMHWYQQKPGQPPKLLIYAASKLESGVPARFSGSGSGTDFTLTINPVEAEDTANYYCQQSFEDPLTFGQGTKLEIKGGGGSGIPPKIECLPIDISIDEGKVLTVASAFTGEPTPEVTWSTGGRKIHSQEQGRFHIENTDDLTTLIIKDVQKQDGGLYTLTLRNEFGSDSATVNIHIRSI
light 2: DIQMTQSPSSLSASVGDRVTITCRASENIYSYLAWYQQKPGKSPKLLIYNARTLAEGVPSRFSGSGSGTDFTLTISSLQPEDFATYYCQYHSGSPLPFGGGTKVEIKRTVAAPSVFIFPPSDEQLKSGTASVVCLLNNFYPREAKVQWKVDNALQSGNSQESVTEQDSKDSTYSLSSTLTLSKADYEKHKVYACEVTHQGLSSPVTKSFNRGEC
notes: also called anti-PDL1-TIGIT bispecific antibody in a (FabV)2-IgG form; PDL1-TIGIT bispecific antibody
Kd (human PDL1-his [1]): 0.0257 nM
koff (human PDL1-his [1]): 9.53e-05 s⁻¹
kon (human PDL1-his [1]): 3.71e+06 M⁻¹ s⁻¹
Kd (human TIGIT-his [2]): 0.097 nM
koff (human TIGIT-his [2]): 0.000123 s⁻¹
kon (human TIGIT-his [2]): 1.27e+06 M⁻¹ s⁻¹
Kd (human TIGIT-his [3]): 0.0954 nM
koff (human TIGIT-his [3]): 0.00012 s⁻¹
kon (human TIGIT-his [3]): 1.26e+06 M⁻¹ s⁻¹
Kd (human PDL1-his [4]): 0.0303 nM
koff (human PDL1-his [4]): 8.12e-05 s⁻¹
kon (human PDL1-his [4]): 2.68e+06 M⁻¹ s⁻¹

B2: HJ-3-H2 (other)
heavy: EVQLVQSGAEVKKPGSSVKVSCKASGYTFSNYLIEWVRQAPGQGLEWIGVIDPGVGDTNYNENFKGRATLTADKSTSTAYIELSSLRSEDTAVYYCAREDNTGTAFDYWGQGTTVTVSSASTKGPSVFPLAPSSKSTSGGTAALGCLVKDYFPEPVTVSWNSGALTSGVHTFPAVLQSSGLYSLSSVVTVPSSSLGTQTYICNVNHKPSNTKVDKKVEPKSCDKTHTCPPCPAPEAAGGPSVFLFPPKPKDTLMISRTPEVTCVVVDVSHEDPEVKFNWYVDGVEVHNAKTKPREEQYNSTYRVVSVLTVLHQDWLNGKEYKCKVSNKALPAPIEKTISKAKGQPREPQVCTLPPSREEMTKNQVSLSCAVKGFYPSDIAVEWESNGQPENNYKTTPPVLDSDGSFFLVSKLTVDKSRWQQGNVFSCSVMHEALHNHYTQKSLSLSPGKDYKDDDDK
notes: also called chain 2 of HJ-3
binding result (HJ-3-L1): no binding

B6: HJ-2-H1 (other)
heavy: EVQLVESGGGLVQPGGSLRLSCAASGFTFSHYYMAWVRQAPGKGLEWVTSISYEGDITYYGDSVKGRFTISRDNSKNTLYLQMNSLRAEDTATYYCASQTLRESFDYWGQGTLVTVSSASTKGPSVFPLAPSSKSTSGGTAALGCLVKDYFPEPVTVSWNSGALTSGVHTFPAVLQSSGLYSLSSVVTVPSSSLGTQTYICNVNHKPSNTKVDKKVEPKSCDKTHTCPPCPAPEAAGGPSVFLFPPKPKDTLMISRTPEVTCVVVDVSHEDPEVKFNWYVDGVEVHNAKTKPREEQYNSTYRVVSVLTVLHQDWLNGKEYKCKVSNKALPAPIEKTISKAKGQPREPQVCTLPPSREEMTKNQVSLSCAVKGFYPSDIAVEWESNGQPENNYKTTPPVLDSDGSFFLVSKLTVDKSRWQQGNVFSCSVMHEALHNHYTQKSLSLSPGKDYKDDDDK
notes: also called chain 2 of HJ-2
binding result (HJ-2-L2): no binding

B7: Light chain of I3 (other)
light: DIQMTQSPSSLSASVGDRVTITCRASQSISNNLNWYQQKPGKAPKLLIYYTSRFHSGVPSRFSGSGSGTDFTFTISSLQPEDIATYYCQQEHTLPYTFGQGTKLEIKSGAPRFLTRPLAFVVSVGKDATLSSQIVGNPTPQVSWEKDKQPVTAGARFRLAQDGDLYRLKILDLQLSDSGQYVSRARNAIGEAFACLGLQVDAEA
notes: single antibody chain, co-expressed
binding result (Heavy chain of D0): no binding
